Assay results taken from US20260242478A1 (published 2026).
Where no end group is shown, it is not given here.

B1: Phage-29 (peptide, not shown: large carriers)
peptide: MDWCPRDLWVHCFA
modifications: cysteine pairing not given here; also: fused to phage pIII, linker not given here
notes: Clonal phage supernatant
B2: Phage-35 (peptide, not shown: large carriers)
peptide: MDWCPRSLWHECFA
modifications: cysteine pairing not given here; also: fused to phage pIII, linker not given here
notes: Clonal phage supernatant
B3: Phage-32 (peptide, not shown: large carriers)
peptide: MDWCPRDMWSVCFS
modifications: cysteine pairing not given here; also: fused to phage pIII, linker not given here
notes: Clonal phage supernatant; the listing entry decides
B4: Phage-36 (peptide, not shown: large carriers)
peptide: MDWCPRYLWHVCFA
modifications: cysteine pairing not given here; also: fused to phage pIII, linker not given here
notes: Clonal phage supernatant
B5: Phage-267 (peptide)
peptide: MTLCLSVDLVHCWY
modifications: cysteine pairing not given here; also: displayed on bacteriophage as fusion to pIII, fusion limits and linker not given here
notes: Clonal phage of the Peptide-9 library, tested as crude phage supernatant; not shown: pIII of the bacteriophage
B6: Phage-279 (peptide)
peptide: MDWCPRYLWAECFN
modifications: cysteine pairing not given here; also: displayed on phage as fusion to pIII, fusion limits and linker not given here
notes: as for B5
B7: Phage-276 (peptide)
peptide: IDWCPKIHWDLCYF
modifications: cysteine pairing not given here; also: displayed on phage as fusion to pIII, fusion limits and linker not given here
notes: as for B5
B8: Phage-277 (peptide)
peptide: MDWCPRSHWSECFS
modifications: cysteine pairing not given here; also: displayed on phage as fusion to pIII, fusion limits and linker not given here
notes: as for B5
B9: Phage-257 (peptide)
peptide: MDWCPRFLWHECFN
modifications: cysteine pairing not given here; also: fused to phage pIII, linker and fusion site not given here
notes: as for B5
B10: Phage-262 (peptide)
peptide: MYWCATSMWNRCFV
modifications: cysteine pairing not given here; also: displayed on phage pIII, linker not given here
notes: as for B5
B11: Phage-254 (peptide)
peptide: MDWCPRYLWSECFA
modifications: cysteine pairing not given here; also: fused to phage pIII, linker and fusion site not given here
notes: as for B5
B12: Phage-275 (peptide)
peptide: MDWCPRDHWVDCYS
modifications: cysteine pairing not given here; also: displayed on phage as fusion to pIII, fusion limits and linker not given here
notes: as for B5
B13: Phage-256 (peptide)
peptide: MDWCPFDLWHVCYN
modifications: cysteine pairing not given here; also: fused to phage pIII, linker and fusion site not given here
notes: as for B5
B14: Phage-259 (peptide)
peptide: MDWCPRNLWHACFN
modifications: cysteine pairing not given here; also: fused to phage pIII, linker and fusion site not given here
notes: as for B5
B15: Phage-263 (peptide)
peptide: MDWCPRHMWHECFA
modifications: cysteine pairing not given here; also: displayed on phage pIII, linker not given here
notes: as for B5
B16: Phage-269 (peptide)
peptide: DSFCTWSAWQECGR
modifications: cysteine pairing not given here; also: phage-displayed pIII fusion, pIII and linker not given here
notes: as for B5
B17: Phage-272 (peptide)
peptide: MVWCMSVGWAVCLN
modifications: cysteine pairing not given here; also: displayed on phage as fusion to pIII, fusion limits and linker not given here
notes: as for B5
B18: Phage-264 (peptide)
peptide: MDWCPRHLWHVCFN
modifications: cysteine pairing not given here; also: displayed on phage pIII, linker not given here
notes: as for B5
B19: Phage-255 (peptide)
peptide: MDWCPRHLWSVCFN
modifications: cysteine pairing not given here; also: fused to phage pIII, linker and fusion site not given here
notes: as for B5
B20: Phage-274 (peptide)
peptide: WVSCLRHHWLECFH
modifications: cysteine pairing not given here; also: displayed on phage as fusion to pIII, fusion limits and linker not given here
notes: as for B5
B21: Phage-261 (peptide)
peptide: MDWCPMFMWHECFN
modifications: cysteine pairing not given here; also: displayed on phage as pIII fusion, fusion limits and linker not given here
notes: as for B5
B22: Phage-266 (peptide)
peptide: VTSCPTTMWNRCFS
modifications: cysteine pairing not given here; also: displayed on bacteriophage as fusion to pIII, fusion limits and linker not given here
notes: as for B5
B23: Phage-270 (peptide)
peptide: MDWCPRDFWAFCFF
modifications: cysteine pairing not given here; also: displayed on phage as fusion to pIII, fusion limits and linker not given here
notes: as for B5
B24: Phage-416 clonal phage peptide MDWCPSNMWNECFF (peptide)
peptide: MDWCPSNMWNECFF
notes: tested as crude clonal phage supernatant
B25: Phage-419 clonal phage peptide VDWCPAHMWNECYN (peptide)
peptide: VDWCPAHMWNECYN
notes: as for B24

molecular target: anti-CD28 scFv (VH - linker 1 - VL) (biotinylated (site not stated)); test: same phage ELISA, wells pre-incubated with soluble CD28 (competitor)
Sequence (scFv, as listed by the source): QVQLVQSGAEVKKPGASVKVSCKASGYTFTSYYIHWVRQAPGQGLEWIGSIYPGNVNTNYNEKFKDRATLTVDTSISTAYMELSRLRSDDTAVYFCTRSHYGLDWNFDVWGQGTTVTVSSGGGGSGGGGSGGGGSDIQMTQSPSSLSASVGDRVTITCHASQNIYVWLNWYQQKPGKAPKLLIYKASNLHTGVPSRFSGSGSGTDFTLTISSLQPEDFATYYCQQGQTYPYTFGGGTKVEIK

First: MNWCPKDIWYLCFN (peptide, not shown: large carriers, Clonal phage supernatant) [Phage-22]
Second: MDWCPLHMWHECFS (peptide, not shown: large carriers, Clonal phage supernatant) [Phage-23]
The “CD28 scFv signal in presence of CD28” value of the first is higher: 0.168 for the first, 0.151 for the second.

Compared with B1, B2 is higher in “CD28 scFv signal in presence of CD28” value: 0.179 for the first, 0.255 for the second.

First: B3
Second: B4
The “CD28 scFv signal in presence of CD28” value of the first is lower: 0.207 for the first, 0.226 for the second.

molecular target: T1, Anti-CD28 scFv (VH - linker 1 - VL) (biotinylated (site not given)); test: phage binding ELISA on anti-CD28 scFv plate; wells pre-incubated with soluble CD28 as competitor;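 note: clonal phage supernatants tested, bound phage read out with an HRP-linked anti-M13 antibody, reference wells received blocking buffer lacking CD28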
T1 sequence (scFv, as listed by the source): as above

Going from B5 to B6, the “CD28 scFv signal in presence of CD28” value rises from 0.093 to 1.14.

First: B7
Second: B8
The “CD28 scFv signal in presence of CD28” value of the first is lower: 0.082 for the first, 0.087 for the second.

Compared with B9, B10 is higher in “CD28 scFv signal in presence of CD28” value: 0.351 for the first, 0.415 for the second.

First: B11
Second: B12
The “CD28 scFv signal in presence of CD28” value of the first is higher: 0.513 for the first, 0.092 for the second.

Going from B13 to B14, the “CD28 scFv signal in presence of CD28” value falls from 0.651 to 0.112.

Going from B15 to B16, the “CD28 scFv signal in presence of CD28” value falls from 0.298 to 0.101.

Compared with B17, B18 is higher in “CD28 scFv signal in presence of CD28” value: 0.284 for the first, 0.636 for the second.

First: B19
Second: B20
The “CD28 scFv signal in presence of CD28” value of the first is lower: 0.825 for the first, 0.858 for the second.

Going from B21 to B22, the “CD28 scFv signal in presence of CD28” value falls from 1.04 to 0.546.

With B23 the “CD28 scFv signal in presence of CD28” value was 0.655.

molecular target: anti-CD28 Fab; test: competition ELISA, peptide titrated 0-100 uM against 1 nM anti-CD28 Fab, plate-bound CD28 as competitor
Sequence (VH, as listed by the source, chain 1 of 2): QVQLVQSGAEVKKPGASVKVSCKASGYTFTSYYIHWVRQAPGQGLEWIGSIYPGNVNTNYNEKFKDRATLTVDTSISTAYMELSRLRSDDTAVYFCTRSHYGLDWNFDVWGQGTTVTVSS
Sequence (VL, as listed by the source, chain 2 of 2): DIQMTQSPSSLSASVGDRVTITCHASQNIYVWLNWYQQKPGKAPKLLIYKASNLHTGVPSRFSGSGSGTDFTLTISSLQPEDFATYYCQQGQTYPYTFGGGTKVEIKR

Compared with ACAAGASYAWPYCL [Peptide-99], ACAGHAWQYINKCL [Peptide-107] is higher in IC50: 21 µM for the first, over 100 µM for the second.

First: YCAAHAWQYINKCL [Peptide-108]
Second: YCAGHAWQYINKCA [Peptide-116]
The IC50 of the first is higher: over 100 µM for the first, 98.6 µM for the second.

Compared with YCAGHAAQYINKCL [Peptide-110], YCAGHAWQYANKCL [Peptide-113] is 32-fold higher in IC50: 3.16 µM for the first, 102 µM for the second. The first is the more potent here.

YCAGHAWQYINACL [Peptide-115] and YCAGAAWQYINKCL [Peptide-109] cannot be ordered by IC50: over 100 µM for the first, over 100 µM for the second.

Going from YCAGHAWAYINKCL [Peptide-111] to YCAGHAWQAINKCL [Peptide-112], the IC50 rises from 12.3 µM to over 100 µM. The first is the more potent here.

With YCAGHAWQYIAKCL [Peptide-114] the IC50 was 5.49 µM.

molecular target: T1, Anti-CD28 scFv (VH - linker 1 - VL); test: phage binding ELISA; biotinylated anti-CD28 scFv on neutravidin plate, bound phage detected with anti-M13-HRP
Protocol: Clonal phage were harvested as crude supernatants and screened via standard enzyme linked immunosorbent assays (ELISAs). […] Prior to the addition of clonal phage, wells were incubated with blocking buffer and CD28 soluble protein or blocking buffer alone. Without washing or aspirating, clonal phage supernatants were then added to the wells and incubated for a short time. Wells were then washed followed by detection of bound phage using a horse radish peroxidase conjugated anti-M13 antibody.

Compared with B5, B6 is higher in “CD28 scFv signal” value: 0.632 for the first, 2.74 for the second.

Going from B7 to B8, the “CD28 scFv signal” value falls from 0.295 to 0.253.

Going from B9 to B10, the “CD28 scFv signal” value falls from 2.59 to 0.398.

Going from B11 to B12, the “CD28 scFv signal” value falls from 2.71 to 0.671.

Going from B13 to B14, the “CD28 scFv signal” value falls from 2.6 to 1.57.

Compared with B15, B16 is lower in “CD28 scFv signal” value: 2.52 for the first, 0.13 for the second.

Going from B17 to B18, the “CD28 scFv signal” value rises from 0.271 to 2.67.

Going from B19 to B20, the “CD28 scFv signal” value falls from 2.65 to 0.723.

First: B21
Second: B22
The “CD28 scFv signal” value of the first is higher: 2.23 for the first, 1.22 for the second.

With B23 the “CD28 scFv signal” value was 2.37.

molecular target: T2, Anti-CD28 scFv (VH - linker 1 - VL) (biotinylated (site not stated)); test: phage ELISA; biotinylated anti-CD28 scFv on neutravidin plate, clonal phage supernatant, anti-M13-HRP detection;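 note: before phage addition, wells were pretreated with soluble CD28 protein in blocking buffer, or with blocking buffer only as the comparison, then phage were added without washing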
T2 construct: Biotinylated and captured on neutravidin-coated plates in the phage panning ELISA
T2 sequence (scFv, as listed by the source): as the sequence (scFv, as listed by the source) above

First: B24
Second: B25
The “CD28 scFv signal” value of the first is higher: 0.983 for the first, 0.664 for the second.
